Assay results reported in patent US20260365719 (published 2026).

Target: SARS-CoV-2 spike trimer (Wuhan) (SARS-CoV-2, UniProt P0DTC2)
Experiment: competition

Binder | IC50 [µg/mL]
Bebtelovimab (antibody, V domains shown) VH: QITLKESGPTLVKPTQTLTLTCTFSGFSLSISGVGVGWLRQPPGKALEWLALIYWDDDKRYSPSLKSRLTISKDTSKNQVVLKMTNIDPVDTATYYCAHHSISTIFDHWGQGTLVTVSS VL: QSALTQPASVSGSPGQSITISCTATSSDVGDYNYVSWYQQHPGKAPKLMIFEVSDRPSGISNRFSGSKSGNTASLTISGLQAEDEADYYCSSYTTSSAVFGGGTKLTVLG | 0.00899
6R9A-A2 (antibody, V domains shown) VH: EVQLVESGGGLVQPGGSLRLSCTASGFSFPHQAMTWVRQAPGKGLEWIGVIASNADTYYASWAKGRFTISRDNSKNTLYLQMNSLRAEDTAVYYCARHPGSAGYGYQYYYAMDPWGQGTLVTVSS VL: DIQMTQSPSSLSASVGDRVTITCQASEEVHYGINWYQQKPGKAPKLLIYGANYRVDGVPSRFSGSGSGTDYTLTISSLQPEDFATYYCQQGYNVPTDFGGGTKVEIKR | 0.014
6R8A-F2 (antibody, V domains shown) VH: EVQLVESGGGLVQPGGSLRLSCKASGYSLSSQALTWVRQAPGKGLEWIGVIASNADTYYASWAKGRFTISRDNSKNTLYLQMNSLRAEDTAVYYCARHPGSAGYGYQYYYAMDPWGQGTLVTVSS VL: DIQMTQSPSSLSASVGDRVTITCQASEKVYYGVNWYQQKPGKAPKLLIYGTNYRLDGVPSRFSGSGSGTDSTLTISSLQPEDFATYYCQQGYNVPNAFGGGTKVEIKR | 0.0169
6R8C-D9 (antibody, V domains shown) VH: EVQLVESGGGLVQPGGSLRLSCKASGFTFSRQALTWVRQAPGKGLEWIGVIASNADTYYASWAKGRFTISRDNSKNTLYLQMNSLRAEDTAVYYCARHPGSAGYGYQYYYAMDPWGQGTLVTVSS VL: DIQMTQSPSSLSASVGDRVTITCQASEEVHYGINWYQQKPGKAPKLLIYGANYRVDGVPSRFSGSGSGTDYTLTISSLQPEDFATYYCQQGYNVPTDFGGGTKVEIKR | 0.0203
6R8A-E11 (antibody, V domains shown) VH: EVQLVESGGGLVQPGGSLRLSCKASGFTFSRQALTWVRQAPGKGLEWIGVIASNADTYYASWAKGRFTISRDNSKNTLYLQMNSLRAEDTAVYYCARHPGSAGYGYQYYYAMDPWGQGTLVTVSS VL: DIQMTQSPSSLSASVGDRVTITCQASENIRYAINWYQQKPGKAPKLLIYGANYRVDGVPSRFSGSGSGTDYTLTISSLQPEDFATYYCQQGYNVPTDFGGGTKVEIKR | 0.0116
6R8A-A2 (antibody, V domains shown) VH: EVQLVESGGGLVQPGGSLRLSCKASGYSLNKQALTWVRQAPGKGLEWIGVIASNADTYYASWAKGRFTISRDNSKNTLYLQMNSLRAEDTAVYYCARHPGSAGYGYQYYYAMDPWGQGTLVTVSS VL: DIQMTQSPSSLSASVGDRVTITCQASEEVHYGINWYQQKPGKAPKLLIYGANYRVDGVPSRFSGSGSGTDYTLTISSLQPEDFATYYCQQGYNVPTDFGGGTKVEIKR | 0.0106
6R8C-G8 (antibody, V domains shown) VH: EVQLVESGGGLVQLGGSLRLSCKASGYSLAPQAMTWVRQAPGKGLEWIGVIASNADTYYASWAKGRFTISRDNSKNTLYLQMNSLRAEDTAVYYCARHPGSAGYGYQYYYAMDPWGQGTLVTVSS VL: DIQMTQSPSSLSASVGDRVTITCQASEEVHYGINWYQQKPGKAPKLLIYGANYRVDGVPSRFSGSGSGTDYTLTISSLQPEDFATYYCQQGYNVPTDFGGGTKVEIKR | 0.0124
6R9E-A8 (antibody, V domains shown) VH: EVQLVESGGGLVQPGGSLRLSCKASGSTISHQAVTWVRQAPGKGLEWIGVIASNADTYYASWAKGRFTISRDNSKNTLYLQMNSLRAEDTAVYYCARHPGSAGYGYQYYYAMDPWGQGTLVTVSS VL: DIQMTQSPSSLSASVGDRVTITCQASEEVHYGINWYQQKPGKAPKLLIYGANYRVDGVPSRFSGSGSGTDYTLTISSLQPEDFATYYCQQGYNVPTDFGGGTKVEIKR | 0.0274
6R9B-E9 (antibody, V domains shown) VH: EVQLVESGGGLVQPGGSLRLSCKASGFTFSRQALTWVRQAPGKGLEWIGVIASNADTYYASWAKGRFTISRDNSKNTLYLQMNSLRAEDTAVYYCARHPGSAGYGYQYYYAMDPWGQGTLVTVSS VL: DIQMTQSPSSLSASVGDRVTITCQASENIRYAVNWYQQKPGKAPKLLIYGANYRVDGVPSRFSGSGSGTDYTLTISSLQPEDFATYYCQQGYRVQILFGGGTKVEIKR | 0.0185
6R8C-D10 (antibody, V domains shown) VH: EVQLVESGGGLVQPGGSLRLSCTASGYSISHQAVTWVRQAPGKGLEWIGVIASNADTYYASWAKGRFTISRDNSKNTLYLQMNSLRAEDTAVYYCARHPGSAGYGYQYYYAMDPWGQGTLVTVSS VL: DIQMTQSPSSLSASVGDRVTITCQASEEVHYGINWYQQKPGKAPKLLIYGANYRVDGVPSRFSGSGSGTDYTLTISSLQPEDFATYYCQQGYNVPTDFGGGTKVEIKR | 0.0098
6R9B-B11 (antibody, V domains shown) VH: EVQLVESGGGLVQPGGSLRLSCKASGFTFSRQALTWVRQAPGKGLEWIGVIASNADTYYASWAKGRFTISRDNSKNTLYLQMNSLRAEDTAVYYCARHPGSAGYGYQYYYAMDPWGQGTLVTVSS VL: DIQMTQSPSSLSASVGDRVTITCQASQAIKYAINWYQQKPGKAPKLLIYGANYRGPGVPSRFSGSGSGTDYTLTISSLQPEDFATYYCQQGYIVPITFGGGTKVEIKR | 0.015
6R8A-E1 (antibody, V domains shown) VH: EVQLVESGGGLVQPGGSLRLSCKASGYSLAPQAMTWVRQAPGKGLEWIGVIASNADTYYASWAKGRFTISRDNSKNTLYLQMNSLRAEDTAVYYCARHPGSAGYGYQYYYAMDPWGQGTLVTVSS VL: DIQMTQSPSSLSASVGDRVTITCQASENIRYAINWYQQKPGKAPKLLIYGANYRVDGVPSRFSGSGSGTDYTLTISSLQPEDFATYYCQQGYNVPTDFGGGTKVEIKR | 0.0122
6R8C-F10 (antibody, V domains shown) VH: EVQLVESGGGLVQPGGSLRLSCKASGFTFSRQALTWVRQAPGKGLEWIGVIASNADTYYASWAKGRFTISRDNSKNTLYLQMNSLRAEDTAVYYCARHPGSAGYGYQYYYAMDPWGQGTLVTVSS VL: DIQMTQSPSSLSASVGDRVTITCKASEDIRYGLNWYQQKPGKAPKLLIYGANYRVDGVPSRFSGSGSGTDYTLTISSLQPEDFATYYCQQGYNVPNFFGGGTKVEIKR | 0.0145
